Residue numbers refer to the chain shown, from its start. Names may count otherwise. Each block holds one molecule with its values, some of them ahead of it.
Assays:
[1] = molecular target: pyrene-labelled rabbit skeletal F-actin (rabbit) (UniProt P68135); assay: other fluorescence titration
[2] = molecular target: RLC-depleted porcine cardiac myosin (porcine) (UniProt P79293); assay: co-sedimentation

Molecule: A13T-RLC-reconstituted porcine cardiac myosin (from UniProt P79293 1-1935; P10916 1-166) (complex)
Kd [1]: 24.4 nM
stoichiometry N [1]: 0.9

Molecule: WT-RLC-reconstituted porcine cardiac myosin (from UniProt P79293 1-1935; P10916 1-166) (complex)
Kd [1]: 18.9 nM
stoichiometry N [1]: 0.8

The remaining lines, values ahead:

Kd [2]: 2920 nM
B1: recombinant human cardiac (ventricular) myosin regulatory light chain, wild type (natural protein)
chain: MAPKKAKKRAGGANSNVFSMFEQTQIQEFKEAFTIMDQNRDGFIDKNDLRDTFAALGRVNVKNEEIDEMIKEAPGPINFTVFLTMFGEKLKGADPEETILNAFKVFDPEGKGVLKADYVREMLTTQAERFSKEEVDQMFAAFPPDVTGNLDYKNLVHIITHGEEKD

Kd [2]: 8140 nM
B2: recombinant human cardiac (ventricular) myosin regulatory light chain, A13T mutant (natural protein)
chain: B1 chain with A13T

Reference: publication PMC6589164
